# Results published in the DeepSol protein solubility set.
# Experiment: soluble on expression in E. coli; label from the status in PepcDB or PDB records
row,Sequence,soluble on expression in E. coli
1,MAYVESFYMDASLESDADVLPASESDMFEAQFIADVPLDGDAIIRIVDSQLAFEQRNHVVSDYCTMKAAELEKNPNQLTMNSSVMDNQQYFAPPKSESSQYAWNTNDVVSSHHQYAAQSPNIYTNDYHTSEPSDYAYI,not soluble
2,MCDKSKTVLDYTIEFLDKYIPEWFETGNKCPLFIFFSGPQGSGKSFTSIQIYNHLMEKYGGEKSIGYASIDDFYLTHEDQLKLNEQFKNNKLLQGRGLPGTHDMKLLQEVLNTIFNNNEHPDQDTVVLPKYDKSQFKGEGDRCPTGQKIKLPVDIFILEGWFLGFNPILQGIENNDLLTGDMVDVNAKLFFYSDLLWRNPEIKSLGIVFTTDNINNVYGWRLQQEHELISKVGKGMTDEQVHAFVDRYMPSYKLYLNDFVRSESLGSIATLTLGIDSNRNVYSTKTRCIE,soluble
3,MCGRFAYIASYDKLKYQFHLANAIEVPPRFNISPGADVLCLVETDGHKIQCVLLRWGFIPSWATDRKKLGNLINARAETVFEKPTFRQSIKSKRCLIPMSGFYEWRQEDGVKQPYFFQKKNHDLLAVAAIRDTWQQSDEVIHSCCLITTDANAFMQPVHNRMPVILGEEAQAIWLNNTQYDKAQLMALMKPYPYEDLEGYRVTTLVNKANFDHPLAMEPLSELEHHHHHH,soluble
4,MCGRIAQKSAPEDYVEILWPNARLIFDDVAGPRYNIPPGTKPLTMHRLAGGFEVDRQWWTWRPSGSKYAMNCARLDKILGNKWPWKLLTARGRILVPADGWYEWKALDSSPKPAKQPYFIHGAGPLLFAGLSAWRPGAEMDEAHGFAIVTDDAQGGMVDVHDRRPVALPPELAREWVDPATPVARAMEILRAGLPETAFSWHPVRQEVGSSKYQLPDAIDPILEHHHHHH,soluble
5,MCIHTIPYYSAKRRRIMDNQFFKNIEKKTGVKMQDVMNLAGSLQNANFKDENTVRSVINRVAQMANRRVPKELEDKIVESITSGKEKLDFGTISKMMDNKLEHHHHHH,not soluble
6,MCIIKPMDDVVKFIHEVGSLKLTPRSGWLKLGIRLPESVAEHSFRAAIIAFILALKSGESVEKACKAATAALFHDLHEARTMDLHKIARRYVSCDEEGAREEQLSWMESKPDFSDVEVYVSDADKLELAFQGVEYSQQVSYAIRFAENVELKTDAAKEIYRVLMERKNPVWWR,soluble
7,MCLVALAWKTHPRWRLLLAGNRDEFHERPTAPLAQWAAPAERVLAGRDLRSGGSWVGLGLDGRAAVVTNVRDPLATASGRSRGHLIADYLSGSADAATYARELAAAGQEFPPFNLLLCDAERCEHLSNHPALARALAPGIHGMSNGPLDAHWPKTTALTHALAAWCDSGSDDLQPLWTALANPATAADADLPHTGVDRATERLLSAAFIRGASYGTRASTIVAVDHHGHGFIHERRFGPDGVFQGETRLDVAGMHLEHHHHHH,not soluble
8,MCLVKDKLKDIISVKSALSFSLKGDFDCPLEENSLFKALQILKNFLKSKNFSHSVIKSLDTLAIEVEKNIPTQAGLGGGSTDAGGLLYHLNQIFDWRLSLEELYSMGSLVGADTNFFISQYKSTNATSYGEVIENFEEEPLENRLEIYAPNHVFCSTKAVYQAYKPETCFSQAKEWLKKPSLECLKTYDRNGLNDLLKPALLTNQALKDIESELGKEWFFSGSGSAFFRLKPMQKGGELEHHHHHH,not soluble
9,MCMGIFKRVSNMVKAKVNNTLDEMENPIELLDQKIRDMEESLNKAKISSAQILGNAHEIEKKLQKARLESEDYDSKVKLAVKNGNDDLAKRALERKLDADKRESLQKSYEDASQKSKVIKDKLRTLEEEIEKTRAYRDEAAARFNNAEATKKVNEVLSNVDTGSNSINLDDIERKIERKEAMAEGLGDLRNEDSLEKEFEKLNETNLDDELAKYKNNIKLEHHHHHH,soluble
10,MCMKQSLFGRVRDAILADFHNVLDEKERKNPIAMLNQYLRDSEREITKIEKLIQRHKTLKSNFARELEQARYFVNKRSKQALIAQEAGELQLHERALEEVAYYEGQVTRLEEMYAGVVEQIDELERRLSEMKNKLKEMHAKRMELMARENMAHANRRMNTAMHKMDENNPFLRFEEIEEHIRDLETRMNEEHERDTFDMKIAKLEREMKEKNDVSLTKELTKLEHHHHHH,not soluble
11,MCPEFQRKAAGAPRMGAMLARCVLTAALALQAAAAARAVEIEIGVASRGVVDGLEFVQFSADERTMATTHWGNVVHLWDLKTLRVRSSVSVANRDFDFDLSPDGRALAVWNEEGKGEIELYDTDNGQPARALPAPRLPQGESRRGRSLVYRDDGTLEFVSHGWIGGHARKAYLLAVPAGQPRAAETPLPALVNSVAFRKSAVMDQGRLLLAGVDGADDELAIMDIASGRMLAREPGFRIASYAADARRAVFVEADGKQRILAFDFSSRSLSTLPRWTGSGKFQPYRFVAGTRFLVLAPDEPDASTRRAAPGIYDLQTRRLHRLPPDADPGSIDVWGATASYVLCNPDHTACQAEVADLAISRKLGTFAVQPSADFRTWISPSGSMVVVGGADDGTMMVWSVKEQRVIGPNLEHHHHHH,not soluble
12,MCSDVVAGDLNDLRIAALNLGKMSELYTNGAFVLGIAQGADTETYGRPHEWWSYVEQQLATALRFTYDRLNDGQEALLAAIDAYAYVDGDNAKGLTDVGKEYKEYISNPNNVGDEKYYDPPPLHTMVDAPDLGDKPEGWEEKYDG,not soluble
13,MCTDHQWINSAIRKIEADYQRSADTHLIKLDLPCVSGVDIYLKDESTHPTGSLKHRLARSLFLYGLCNGWIGPETTIIESSSGSTAVSEAYFARLLGLPFIAVMPKCTARKKIEQIQFYGGKAHLVDRSDQIYAESHRLAKELKGHYMDQFTYAERATDWRGNSNIADSIFSQMQMEQHPVPSWIVMSPGTGGTSATIGRFIRYQQYNTKLCVVDPENSVFYDYYRTRNAELTRDCGSKIEGIGRPRVEPSFIPDVVDEMRAIPDAASVATIYWLEKILGRKAGASTGTNLYGALQLACEMKRRGEQGSIVTLLCDSGERYLDTYYNSEWVKNNIGDLSKYLHKLETFSATGCLD,not soluble
14,MCVKVACVGGGPAGLYLSILLKRQDPAHDVTVYERDPEGSTYGWGVTYWRGLLDRLRELDPGSARAVEEHSVRWRDGVAHVGGLATRHHGDEGFGIGRHRLLAILAARARELGVRLEFEHPVTGANPPAADLVVAADGAGSALRTHHADHFGTEITGGRDHYVWLGTTKVFDAFTFAFVETDHGWIWAYGYGFGPEGSTCVVECAPGTWTGLGLDRADEAEGLGLLEKLFADVLDGHPLSARSSGRASAAWPVFRTLTNRTWSRDNLVLLGDAAHTTHYSIGAGTTLALEDAMALATALRERDTLPDALAHYERERRAALLPVQSAARLSAQWYENLPRYIHLPPEQMFALLGQRHSPLLPHLPPRLYYRIDRAAGRLETLRRVKRRLGPVIARTVQARRLAAGDGRARSGRPDAVPAHRGLEHHHHHH,not soluble
15,MDAKVAFSPHSDANGRLDEIGADIDTAQSSVLFSLAFLGQMTRGAIGPALGRALERPEVHVMGIADAEVRAGNLGLNVLTPDNRRRVVRAAALTGNVPPPFLTEPSGLAGVDGNQRGTRMHHKFVVLDFDKPTARVYLGSYNFSNPADDENGENLVVVRDRTVATSYMIEALRMYDHYVFRVLEHHHHHH,soluble
16,MDDATEQEVFNRMQMTQFEEKRFELRETCPKCHQILSSELSRLWHQFVHMDAYNGFLDGKFQIQLPDFEFVRSNVIPCPFSTCSLLFLDLIDARFHYLLEHQSCQLFCCGVRFSDYKTALEHLQGTGSVETEAWDQQKHFLKPVYICNCCNRTWSSRSEYVAHLHGRDHMCPDPVCKYIFETNEKCIRHFFEQHYKHLFLDSRHLLLNYKDHMCVPHVNADFGTTRGFRATWQARIVNFLIEKS,not soluble
17,MDDIIQQLFKEVERPQLTVNEQALQQYLYREIVRLTLLVEPTISKPQIIGLLSALVKKARHYVNADNQAECIQQLLDLVYQEWRFHCDYQEYFYTDNLLLHRVIRSHRGMPLSIGAIVLYLAAKLQLPIYPVNFPTQLILRAEITESSGKKTVRFINPWDGQFLPLELLLKWLEGEVGYGVELSPELLRRADPAELLERVETVFKMVLTREGKYEQTLRLIEYRLAENPDDPYEIRDRGMVLASMDCYQAAYDDLSYFIDQCPDDPSAAILKSEVKGLEQKSKQNQVHLEHHHHHH,soluble
18,MDDKKDNRHLSKPAYREECTGDTERSTTAYMDILEDVSTGSTSKLPLEAKFVKISNNISEKENLPKEKEIGGVKGLEPTRYGDWQHKGKVTDF,soluble
19,MDDQIKQIAERLRGLRDVLELTAEDIARDCEISAEEYRLAETGDYDISVSMLQKIARKYGIALDALMFGEEPKMSSYFLTRAGKGTSIERTKAYKYQSLAAGFMNRNADPFIVTVEPKPDIEPIHYNSHSGQEFNLVLEGRMMISIDGKDLILNEGDSLYFNSKLPHGMKALDGKTVRFLAVIM,not soluble
20,MDEEPERTKRWEGGYERTWEILKEDESGSLKATIEDILFKAKRKRVFEHHGQVRLGMMRHLYVVVDGSRTMEDQDLKPNRLTCTLKLLEYFVEEYFDQNPISQIGIIVTKSKRAEKLTELSGNPRKHITSLKKAVDMTCHGEPSLYNSLSIAMQTLKHMPGHTSREVLIIFSSLTTCDPSNIYDLIKTLKAAKIRVSVIGLSAEVRVCTVLARETGGTYHVILDESHYKELLTHHVSPPPASSSSECSLIRMGFPQHTIASLSDQDAKPSFSMAHLDGNTEPGLTLGGYFCPQCRAKYCELPVECKICGLTLVSAPHLARSYHHLFPLDAFQEIPLEEYNGERFCYGCQGELKDQHVYVCAVCQNVFCVDCDVFVHDSLHCCPGCIHKIPAPSGV,soluble
21,MDEFVKGLMKNGYLITPSAYYLLVGHFNEGKFSLIELIKFAKSRETFIIDDEIANEFLKSIGAEVELPQEIKEGYISTGEGSQKVPDHEELEKITNESSVESSISTGETPKTEELQPTLDILEEEIGDIEGGESSISTGDEVPEVENNNGGTVVVFDKYGYPFTYVPEEIEEELEEYPKYEDVTIEINPNLEVVPIEKDYEIKFDVRRVKLKPPKVKSGSGKEGEIIVEAYASLFRSRLRKLRRILRENPEVSNVIDIKKLKYVKGDEEVTIIGLVNSKKETSKGLIFEVEDQTDRVKVFLPKDSEDYREALKVLPDAVVAFKGVYSKRGIFFANRFYLPDVPLYRKQKPPLEEKVYAVLTSDIHVGSKEFCEKAFIKFLEWLNGYVESKEEEEIVSRIRYLIIAGDVVDGIGIYPGQYSDLIIPDIFDQYEALANLLSNVPKHITIFIGPGNHDAARPAIPQPEFYEEYAKPLYKLKNTVIISNPAVIRLHGRDFLIAHGRGIEDVVSFVPGLTHHKPGLPMVELLKMRHLAPTFGGKVPIAPDPEDLLVIEEVPDLVQMGHVHVYDTAVYRGVQLVNSATWQAQTEFQKMVNIVPTPGLVPIVDVESARVIKVLDFSRWC,soluble
22,MDELSDIGDWSLIQSFLAVAETGSLSAAARQLDRSQPTLGRHVQALEQALGLSLFDRHARGLKLSADGARILPLAQQAHRAMTAISVTAAGQSQSLAGTVRITASVFASHHILPPILADIRAAEPAIELELVPSDTTENLLFRAADIAVRMYRPRQVDIVARHIGDVPLCACAATSYLERKGRPTRAEDLLDFDLVGYDADPIIVKTMQALGWPVTRHSFAMRCDNQSAYWQLIRAGCGIGFGQRSIVAADPLVEVLPFELPVPPLEMWLAAPQAMRLTPRIRRVWDLLAAGLLAAPL,not soluble
23,MDEYNKNPEENDKPEYDMKMEALLKVLNREIPIKAHAHRADDILTAIRIAKEFGLRLTIEHCTEGHLIKDILAEEGVSAIVGSSLTDRSKVELRNLSLKTPGILAKAGVKVAIMTDHPCTPIQYLILCAAMAVREGMDEMEALRAVTINAAELTGIADRVGSIEVGKDADIAIYDGHPFDIRSKVSTTIINGKVVYERKKHERD,not soluble
